Holding throughout (assay): EMSA; EMSA: 25 mM Tris-HCl pH 7.5, 1 mM DTT, 5 mM MgCl2, 100 mM NaCl, 20 min at 37 C; 10 nM substrate; protein 22-167 nM (RPA 5-40 nM); 7.5% native PAGE, 0.5x TBE, 4
In general terms: A gel shift assay detects complexes by their altered migration in electrophoresis.

In one data set the target is INTS3 (UniProt Q68E01 1-1043). Conditions: protein: recombinant; tags: His6-TEV (438B); label: 5' Cy3; single strand.
The target in another data set is RPA (UniProt P27694;P15927;P35244 1-616;1-270;1-121). The following applies: protein: recombinant; copies: 1;1;1; label: 5' Cy3; single strand.
The next data set addresses hSSB1 (Homo sapiens, UniProt Q9BQ15 1-211). The following applies: protein: recombinant, tags: His6 (2BT).

Chain of hSSB1 (Q9BQ15 whole entry): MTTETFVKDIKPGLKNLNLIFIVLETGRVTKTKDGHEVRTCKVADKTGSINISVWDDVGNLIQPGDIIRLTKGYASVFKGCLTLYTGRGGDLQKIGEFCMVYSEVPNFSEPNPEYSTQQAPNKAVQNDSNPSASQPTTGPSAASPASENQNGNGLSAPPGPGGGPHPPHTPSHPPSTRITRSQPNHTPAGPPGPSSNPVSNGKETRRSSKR
Chain of RPA (P27694 whole entry, chain 1 of 3): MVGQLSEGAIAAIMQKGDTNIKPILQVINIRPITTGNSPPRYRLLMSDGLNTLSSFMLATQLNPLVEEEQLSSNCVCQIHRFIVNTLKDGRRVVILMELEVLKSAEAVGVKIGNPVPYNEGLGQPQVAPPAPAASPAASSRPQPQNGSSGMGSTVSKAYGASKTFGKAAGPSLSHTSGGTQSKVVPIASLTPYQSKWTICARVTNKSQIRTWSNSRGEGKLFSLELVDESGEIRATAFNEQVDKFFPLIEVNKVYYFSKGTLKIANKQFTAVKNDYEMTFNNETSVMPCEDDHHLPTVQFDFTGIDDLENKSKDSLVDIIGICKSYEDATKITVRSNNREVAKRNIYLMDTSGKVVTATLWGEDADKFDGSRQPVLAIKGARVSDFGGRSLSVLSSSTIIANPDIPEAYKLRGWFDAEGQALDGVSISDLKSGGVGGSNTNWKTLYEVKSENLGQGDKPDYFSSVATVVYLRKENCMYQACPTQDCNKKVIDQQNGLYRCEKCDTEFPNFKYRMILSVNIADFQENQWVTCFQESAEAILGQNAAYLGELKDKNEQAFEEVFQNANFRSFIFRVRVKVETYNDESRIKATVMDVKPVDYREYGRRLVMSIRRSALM
Chain of RPA (P15927 whole entry, chain 2 of 3): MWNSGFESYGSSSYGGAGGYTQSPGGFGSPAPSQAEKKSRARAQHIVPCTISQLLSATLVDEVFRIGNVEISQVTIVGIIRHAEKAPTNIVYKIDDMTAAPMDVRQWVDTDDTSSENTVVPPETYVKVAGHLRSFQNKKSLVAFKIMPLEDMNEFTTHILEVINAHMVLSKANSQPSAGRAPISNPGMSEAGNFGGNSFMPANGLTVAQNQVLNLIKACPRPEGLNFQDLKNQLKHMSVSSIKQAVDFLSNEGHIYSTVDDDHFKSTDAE
Chain of RPA (P35244 whole entry, chain 3 of 3): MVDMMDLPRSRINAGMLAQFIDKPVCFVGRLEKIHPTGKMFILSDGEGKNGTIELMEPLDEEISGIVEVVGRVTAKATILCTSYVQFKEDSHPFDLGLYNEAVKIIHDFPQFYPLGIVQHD
Chain of INTS3 (Q68E01 whole entry): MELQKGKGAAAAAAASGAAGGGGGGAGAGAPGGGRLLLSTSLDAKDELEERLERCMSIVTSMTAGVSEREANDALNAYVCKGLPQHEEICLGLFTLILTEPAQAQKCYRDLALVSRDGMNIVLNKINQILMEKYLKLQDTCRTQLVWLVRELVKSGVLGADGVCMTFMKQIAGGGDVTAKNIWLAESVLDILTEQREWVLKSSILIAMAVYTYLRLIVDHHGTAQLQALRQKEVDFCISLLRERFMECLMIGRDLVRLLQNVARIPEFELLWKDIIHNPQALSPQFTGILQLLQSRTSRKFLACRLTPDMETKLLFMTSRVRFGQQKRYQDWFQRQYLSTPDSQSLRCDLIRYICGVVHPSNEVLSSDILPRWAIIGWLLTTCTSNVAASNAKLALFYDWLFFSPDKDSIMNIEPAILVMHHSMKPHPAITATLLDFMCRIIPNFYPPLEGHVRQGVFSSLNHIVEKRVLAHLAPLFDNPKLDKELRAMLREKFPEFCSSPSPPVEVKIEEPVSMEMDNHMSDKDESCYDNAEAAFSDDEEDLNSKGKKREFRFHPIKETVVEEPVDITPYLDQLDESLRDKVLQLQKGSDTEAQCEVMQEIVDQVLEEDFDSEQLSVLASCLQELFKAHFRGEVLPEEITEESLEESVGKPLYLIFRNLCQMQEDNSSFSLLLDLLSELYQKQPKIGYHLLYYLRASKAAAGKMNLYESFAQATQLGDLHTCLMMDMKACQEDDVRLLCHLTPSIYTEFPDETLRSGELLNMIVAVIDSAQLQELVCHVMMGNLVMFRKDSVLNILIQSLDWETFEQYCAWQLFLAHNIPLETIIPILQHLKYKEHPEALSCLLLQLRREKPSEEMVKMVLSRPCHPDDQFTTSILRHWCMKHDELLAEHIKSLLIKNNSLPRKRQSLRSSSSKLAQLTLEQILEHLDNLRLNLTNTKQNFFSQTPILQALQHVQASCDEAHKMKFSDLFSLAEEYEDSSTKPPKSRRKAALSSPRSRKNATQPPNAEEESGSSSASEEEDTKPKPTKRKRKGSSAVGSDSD

B1: 61-mer ssDNA (ssDNA)
DNA: GACGCTGCCGAATTCTACCAGTGCCTTGCTAGGACATCTTTGCCCACCTGCAGGTTCACCC
With B1, the binding result is reported as “no binding” in the data set with INTS3; “binds” with RPA; “binds” with hSSB1 (label: 5' Cy3, single strand).

B2: bubble DNA (dsDNA)
DNA 1: B1 DNA
DNA 2: GGGTGAACCTGCAGGTGGGCGGCTGCTCATCGTAGGTTAGTTGGTAGAATTCGGCAGCGTC
Turning to B2, the binding result with hSSB1 (label: 5' Cy3 on strand 1, blunt, 21-nt central bubble) is listed as “no binding”.

B3: R-loop (mixed)
DNA 1: B1 DNA
DNA 2: B2 DNA 2
RNA: AAAGAUGUCCUAGCAAGGCAC
With B3, in the data set with hSSB1 (label: 5' Cy3 on strand 1, 21-nt RNA paired to strand 1 in a 21-nt bubble, 20-bp flanking duplexes), the binding result was “binds”.

Turning to GTGCCTTGCTAGGACATCTTT (ssDNA) [21-mer ssDNA (pRMS630)], the binding result with RPA was “binds”; in the data set with hSSB1 (label: 5' Cy3, single strand) it was “no binding”.

Values taken from paper PMC7617797, “The phosphorylated trimeric SOSS1 complex and RNA polymerase II trigger liquid-liquid phase separation at double-strand breaks”.
